Assay results from the supplement of paper PMC10724198.

These sequences were tested on Saccharomyces cerevisiae (assay: protein stability index of tFT-peptide fusion in wild type (PSI (0-1 scale)); higher = more stable (slower turnover)). Settings: genetic background: wild type.
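Wherever protein stability index of tFT-peptide fusion in deletion strain of DOA10 is given: PSI per variant is the weighted mean of its sequencing read distribution over the sorted stability bins, counting only variants with over 10 reads summed across bins.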
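Wherever protein stability index of tFT-peptide fusion in wild type is given: PSI derived as read-weighted mean over the 8 sorting bins, only variants exceeding 10 total reads kept, mCherry placed adjacent to the peptide and sfGFP distal.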

**Q.** With AITLPMCPELLR as the sequence, how does the protein stability index read?
**A.** 0.663

**Q.** Which protein stability index does the source give for AITLPMCPLDLR here?
**A.** 0.676

**Q.** How did the protein stability index turn out when AITLPMCPLGLR was run?
**A.** 0.644

**Q.** For AITLPMCPLLAR, which protein stability index is on record?
**A.** 0.311

**Q.** Which protein stability index does the source give for AITLPMCPLLGR here?
**A.** 0.603

**Q.** How did the protein stability index turn out when AITLPMCPLLLRF was run?
**A.** 0.121

**Q.** How did the protein stability index turn out when AITLPMCPLLMR was run?
**A.** 0.302

**Q.** With AITLPMCPLLQR as the sequence, how does the protein stability index read?
**A.** 0.626

**Q.** AITLPMCPLLWR was tested. Which protein stability index did it give?
**A.** 0.326

**Q.** AITLPMCPLMLR was tested. Which protein stability index did it give?
**A.** 0.212

**Q.** Which protein stability index does the source give for AITLPMCPLPLR here?
**A.** 0.648

**Q.** With AITLPMCPQLLR as the sequence, how does the protein stability index read?
**A.** 0.64

**Q.** With AITLPMCPSLLR as the sequence, how does the protein stability index read?
**A.** 0.647

**Q.** With AITLPMCYLLLR as the sequence, how does the protein stability index read?
**A.** 0.0897

**Q.** How did the protein stability index turn out when AITLPMIPLLLR was run?
**A.** 0.115

**Q.** Which protein stability index does the source give for AITLSMCPLLLR here?
**A.** 0.311

**Q.** How did the protein stability index turn out when AITNPMCPLLLR was run?
**A.** 0.488

**Q.** For AITRPMCPLLLR, which protein stability index is on record?
**A.** 0.393

**Q.** Which protein stability index does the source give for CHVSLPILLFFR here?
**A.** 0.0491

**Q.** How did the protein stability index turn out when CLVSHPILLFFR was run?
**A.** 0.149

**Q.** With CLVSLPALLFFR as the sequence, how does the protein stability index read?
**A.** 0.0784

**Q.** With CLVSLPIDLFFR as the sequence, how does the protein stability index read?
**A.** 0.648

**Q.** With CLVSLPIFLFFR as the sequence, how does the protein stability index read?
**A.** 0.0521

**Q.** With CLVSLPILLFAR as the sequence, how does the protein stability index read?
**A.** 0.161

**Q.** CLVSLPILLFER was tested. Which protein stability index did it give?
**A.** 0.569

**Q.** With CLVSLPILLFFRR as the sequence, how does the protein stability index read?
**A.** 0.0999

**Q.** With CLVSLPILLFRR as the sequence, how does the protein stability index read?
**A.** 0.43

**Q.** Which protein stability index does the source give for CLVSLPILLFSR here?
**A.** 0.391

**Q.** Which protein stability index does the source give for CLVSLPIRLFFR here?
**A.** 0.0878

**Q.** How did the protein stability index turn out when CLVSLPYLLFFR was run?
**A.** 0.0667

**Q.** For CLVSLTILLFFR, which protein stability index is on record?
**A.** 0.185

**Q.** With CLVSPPILLFFR as the sequence, how does the protein stability index read?
**A.** 0.0809

**Q.** CYVSLPILLFFR was tested. Which protein stability index did it give?
**A.** 0.0495

**Q.** Which protein stability index does the source give for EITLPMCPLLLR here?
**A.** 0.338

**Q.** With FVTRLDAIYFRI as the sequence, how does the protein stability index read?
**A.** 0.189

**Q.** With GHYMCSVGCWFR as the sequence, how does the protein stability index read?
**A.** 0.365

**Q.** Which protein stability index does the source give for GLDMCSVGCWFR here?
**A.** 0.328

**Q.** How did the protein stability index turn out when GLEMCSVGCWFR was run?
**A.** 0.241

**Q.** With GLFMCSVGCWFR as the sequence, how does the protein stability index read?
**A.** 0.264

**Q.** Which protein stability index does the source give for GLYFCSVGCWFR here?
**A.** 0.202

**Q.** With GLYMCDVGCWFR as the sequence, how does the protein stability index read?
**A.** 0.59

**Q.** With GLYMCSAGCWFR as the sequence, how does the protein stability index read?
**A.** 0.427

**Q.** How did the protein stability index turn out when GLYMCSVGCLFR was run?
**A.** 0.575

**Q.** For GLYMCSVGCNFR, which protein stability index is on record?
**A.** 0.632

**Q.** GLYMCSVGCWAR was tested. Which protein stability index did it give?
**A.** 0.438

**Q.** Which protein stability index does the source give for GLYMCSVGCWFRE here?
**A.** 0.453

**Q.** GLYMCSVGCWFRM was tested. Which protein stability index did it give?
**A.** 0.154

**Q.** Which protein stability index does the source give for GLYMCSVGCWFRV here?
**A.** 0.155

**Q.** For GLYMCSVGCWFT, which protein stability index is on record?
**A.** 0.423

What follows are sequences tested on Saccharomyces cerevisiae (assay: protein stability index of tFT-peptide fusion in deletion strain of DOA10 (PSI (0-1 scale)); higher = more stable (slower turnover)). Settings: not given.
Method: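 MPS profiling in S. cerevisiae of two library types built from selected 12-aa C-degron peptides (IN1, IN2, LN1, LN3, VN2, R1-R5, W1-W3, Atg1 and Rpa12 C-termini): saturation mutagenesis libraries and C-terminal +1 capping libraries (13 aa). Each peptide is fused to the C-terminus of a sfGFP-mCherry timer, after a GGGS linker. Cells are FACS-sorted into 8 mCherry/sfGFP bins and sequenced. PSI runs from 0 (unstable) to 1 (stable), measured once in wild type and in the das1Δ or doa10Δ background.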

**Q.** How did the protein stability index turn out when AITLPMCPELLR was run?
**A.** 0.674

**Q.** AITLPMCPLDLR was tested. Which protein stability index did it give?
**A.** 0.685

**Q.** Which protein stability index does the source give for AITLPMCPLGLR here?
**A.** 0.683

**Q.** How did the protein stability index turn out when AITLPMCPLLAR was run?
**A.** 0.343

**Q.** For AITLPMCPLLGR, which protein stability index is on record?
**A.** 0.607

**Q.** AITLPMCPLLLRF was tested. Which protein stability index did it give?
**A.** 0.615

**Q.** How did the protein stability index turn out when AITLPMCPLLMR was run?
**A.** 0.606

**Q.** How did the protein stability index turn out when AITLPMCPLLQR was run?
**A.** 0.671

**Q.** Which protein stability index does the source give for AITLPMCPLLWR here?
**A.** 0.634

**Q.** Which protein stability index does the source give for AITLPMCPLMLR here?
**A.** 0.611

**Q.** For AITLPMCPLPLR, which protein stability index is on record?
**A.** 0.664

**Q.** With AITLPMCPQLLR as the sequence, how does the protein stability index read?
**A.** 0.688

**Q.** How did the protein stability index turn out when AITLPMCPSLLR was run?
**A.** 0.68

**Q.** With AITLPMCYLLLR as the sequence, how does the protein stability index read?
**A.** 0.638

**Q.** How did the protein stability index turn out when AITLPMIPLLLR was run?
**A.** 0.595

**Q.** Which protein stability index does the source give for AITLSMCPLLLR here?
**A.** 0.653

**Q.** How did the protein stability index turn out when AITNPMCPLLLR was run?
**A.** 0.658

**Q.** How did the protein stability index turn out when AITRPMCPLLLR was run?
**A.** 0.65

**Q.** CHVSLPILLFFR was tested. Which protein stability index did it give?
**A.** 0.624

**Q.** For CLVSHPILLFFR, which protein stability index is on record?
**A.** 0.617

**Q.** For CLVSLPALLFFR, which protein stability index is on record?
**A.** 0.664

**Q.** How did the protein stability index turn out when CLVSLPIDLFFR was run?
**A.** 0.698

**Q.** How did the protein stability index turn out when CLVSLPIFLFFR was run?
**A.** 0.591

**Q.** Which protein stability index does the source give for CLVSLPILLFAR here?
**A.** 0.239

**Q.** Which protein stability index does the source give for CLVSLPILLFER here?
**A.** 0.625

**Q.** Which protein stability index does the source give for CLVSLPILLFFRR here?
**A.** 0.593

**Q.** Which protein stability index does the source give for CLVSLPILLFRR here?
**A.** 0.66

**Q.** How did the protein stability index turn out when CLVSLPILLFSR was run?
**A.** 0.486

**Q.** CLVSLPIRLFFR was tested. Which protein stability index did it give?
**A.** 0.658

**Q.** How did the protein stability index turn out when CLVSLPYLLFFR was run?
**A.** 0.64

**Q.** CLVSLTILLFFR was tested. Which protein stability index did it give?
**A.** 0.263

**Q.** How did the protein stability index turn out when CLVSPPILLFFR was run?
**A.** 0.651

**Q.** With CYVSLPILLFFR as the sequence, how does the protein stability index read?
**A.** 0.582

**Q.** EITLPMCPLLLR was tested. Which protein stability index did it give?
**A.** 0.656

**Q.** FVTRLDAIYFRI was tested. Which protein stability index did it give?
**A.** 0.549

**Q.** Which protein stability index does the source give for GHYMCSVGCWFR here?
**A.** 0.643

**Q.** With GLDMCSVGCWFR as the sequence, how does the protein stability index read?
**A.** 0.689

**Q.** Which protein stability index does the source give for GLEMCSVGCWFR here?
**A.** 0.658

**Q.** How did the protein stability index turn out when GLFMCSVGCWFR was run?
**A.** 0.549

**Q.** For GLYFCSVGCWFR, which protein stability index is on record?
**A.** 0.607

**Q.** Which protein stability index does the source give for GLYMCDVGCWFR here?
**A.** 0.699

**Q.** Which protein stability index does the source give for GLYMCSAGCWFR here?
**A.** 0.696

**Q.** How did the protein stability index turn out when GLYMCSVGCLFR was run?
**A.** 0.654

**Q.** With GLYMCSVGCNFR as the sequence, how does the protein stability index read?
**A.** 0.648

**Q.** How did the protein stability index turn out when GLYMCSVGCWAR was run?
**A.** 0.5

**Q.** Which protein stability index does the source give for GLYMCSVGCWFRE here?
**A.** 0.641

**Q.** GLYMCSVGCWFRM was tested. Which protein stability index did it give?
**A.** 0.374

**Q.** Which protein stability index does the source give for GLYMCSVGCWFRV here?
**A.** 0.402

**Q.** For GLYMCSVGCWFT, which protein stability index is on record?
**A.** 0.484
